The target in assay [1] is T1, human 4-1BB, full length, on transfected cells (human, UniProt Q07011 24-255).
T1 construct: whole, on cells; also called CHOK1-h4-1BB
The experiment in a line: FACS, CHOK1-h4-1BB cells; Ab 0.00064 ug/ml. An excerpt: (§1) The pIRES plasmid carrying the full-length gene of monkey-derived […] (the preparation method is the same as the preparation method of the pCpC vector carrying the human-derived IgG Fc fragment (hFc) in “Preparation of immunogen A” of the step (1) in Example 1, in which the database accession number of the amino acid sequence of the extracellular region of monkey 4-1BB protein (Phe19-Thr239) is G7PSE7) was transfected into CHOK1 cell line to obtain CHOK1 stable transfected cell line containing monkey 4-1BB (herein referred to as CHOK1-c4-1BB stable cell line). The CHOK1-h4-1BB stable cell line and the CHOK1-c4-1BB stable cell line were expanded and cultivated to 90% confluence in T-75 cell culture flasks. The medium was exhausted, and washed twice with HBSS buffer (Hanks Balanced Salt Solution, purchased from Invitrogen), and then the cells were treated and collected with enzyme-free cell dissociation solution (Versene solution, purchased from Life Technology). The cells were washed twice with HBSS buffer, and after cell counting, the cells were diluted with HBSS buffer to 2×10⁶ cells per ml, and 1% goat serum blocking solution was added, the percentage being the mass percentage. It was incubated on ice for 30 minutes, and then washed twice with HBSS buffer by centrifugation. The collected cells were suspended in FACS buffer (HBSS containing 1% BSA, the percentage was the mass percentage) to 2×10⁶ cells/mL, and 100 μl per well was added to a 96-well FACS reaction plate. The purified 4-1BB antibody test sample obtained in Example 2 was added, 100 microliters per well and incubated on ice for 2 hours. […] It was washed three times with FACS buffer by centrifugation, and 100 μl of fixative [4% (v/v) paraformaldehyde] per well was added to suspend cells, and washed twice with FACS buffer after 10 minutes by centrifugation. The cells were suspended with 100 microliters of FACS buffer, and the results were detected and analyzed with FACS (FACS Calibur, purchased from BD).

Assay [2] addresses T2, monkey 4-1BB on CHOK1 cells (monkey).
T2 construct: whole, on cells; also called CHOK1-c4-1BB
The experiment in a line: FACS, CHOK1-c4-1BB cells; Ab 0.08 ug/ml.
Text: as §1
Background: A flow cytometer gives signals particle by particle.

The target in assay [3] is T1, human 4-1BB, full length, on …. Nature of the assay: FACS, CHOK1-h4-1BB cells; Ab 2 ug/ml.
Text: as §1

Assay [4] has as its target T3, hFc-tagged human 4-1BB extracellular domain protein (4-1BB-hFc) (human, UniProt Q07011 24-186, limits assumed).
T3 construct: also called immunogen A; 4-1BB^ECD-hFc; not shown: human IgG Fc fragment (hFc) of the pCpC vector
Nature of the assay: ELISA, coated human 4-1BB-hFc; Ab 0.0006 ug/ml. Here is the method: (§2) The purified immunogen A (4-1BB-hFc), monkey 4-1BB-his, and mouse 4-1BB-his obtained in Example 1 [for the preparation method, see step 1 of Example 1, preparation of immunogen A], of which the extracellular domain of monkey-derived 4-1BB protein (purchased from ACRO biosystems), the extracellular domain of mouse 4-1BB protein (purchased from sino biological) or other immune detection point proteins respectively were diluted with PBS to a final concentration of 1.0 μg/mL, then added with […] per well to 96-well ELISA plate. It was sealed with plastic film and incubated at 4° C. overnight. The next day, the plate was washed twice with the plate-washing solution [PBS containing 0.01% (v/v) Tween20] and blocking solution [PBS containing 0.01% (v/v) Tween 20 and 1% (v/v) BSA] was added and blocked at room temperature for 2 hours. The blocking solution was discarded and 100 μl of the purified 4-1BB antibody obtained in Example 2 was added per well. After incubated at 37° C. for 2 hours, the plate was washed 3 times with a plate-washing solution [PBS containing 0.01% (v/v) Tween20]. A secondary antibody (purchased from Sigma) labeled with HRP (horseradish peroxidase) was added, and after incubated at 37° C. for 2 hours, the plate was washed 3 times with a plate-washing solution [PBS containing 0.01% (v/v) Tween20]. 100 μl of TMB substrate was added per well. After incubated for 30 minutes at room temperature, 100 μl of stop buffer (1.0N HCl) was added per well. The A450 nm values were read using an ELISA plate reader (SpectraMax 384plus, Molecular Device).
(In general: ELISA stands for enzyme-linked immunosorbent assay.)

Assay [5] has as its target T1, human 4-1BB, full length, on …. The experiment in a line: FACS, CHOK1-h4-1BB cells; Ab 0.0032 ug/ml.
Text: as §1

Assay [6] deals with T2, monkey 4-1BB on CHOK1 cells. The experiment in a line: FACS, CHOK1-c4-1BB cells; Ab 10 ug/ml.
Text: as §1

Assay [7] deals with T3, hFc-tagged human 4-1BB extracellular …. Nature of the assay: ELISA, coated human 4-1BB-hFc; Ab 0.4 ug/ml. Here is the method: as §2
The target is the same in assay [8]. The experiment in a line: ELISA, coated human 4-1BB-hFc; Ab 0.0001 ug/ml. Here is the method: as §2
Assay [9] shares this target. Nature of the assay: ELISA, coated human 4-1BB-hFc; Ab 2 ug/ml. Here is the method:
as §2

The target in assay [10] is T1, human 4-1BB, full length, on …. The experiment in a line: FACS, CHOK1-h4-1BB cells; Ab 0.08 ug/ml.
Text: as §1

For assay [11], the target named is T2, monkey 4-1BB on CHOK1 cells. Nature of the assay: FACS, CHOK1-c4-1BB cells; Ab 0.00064 ug/ml.
Text: as §1

Assay [12] has the same target. The experiment in a line: FACS, CHOK1-c4-1BB cells; Ab 0.4 ug/ml.
Text: as §1

For assay [13] the target is unchanged. The experiment in a line: FACS, CHOK1-c4-1BB cells; Ab 0.0032 ug/ml.
Text: as §1

Assay [14] concerns the target T1, human 4-1BB, full length, on …. Nature of the assay: FACS, CHOK1-h4-1BB cells; Ab 0.00013 ug/ml.
Text: as §1

T1 sequence (Q07011 24-255): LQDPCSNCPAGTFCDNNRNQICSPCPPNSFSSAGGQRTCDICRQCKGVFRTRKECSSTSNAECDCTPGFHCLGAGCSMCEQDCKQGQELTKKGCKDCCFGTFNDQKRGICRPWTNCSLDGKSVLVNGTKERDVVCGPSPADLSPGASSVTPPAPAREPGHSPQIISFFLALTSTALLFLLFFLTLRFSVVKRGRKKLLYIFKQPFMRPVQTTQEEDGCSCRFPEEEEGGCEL

B1: 289B6G6 (antibody, V domains shown)
VH: QVQLQESGPGLVRPSETLSLTCAVSGYSISSGYYWGWIRQPPGKGLEWIGSIFHSGNTYYNPSLKSRVIVSGDTSKNQFSLKLSSVTAADTAVYYCTRESSGFNVFDIWGQGTMVTVSS
VL: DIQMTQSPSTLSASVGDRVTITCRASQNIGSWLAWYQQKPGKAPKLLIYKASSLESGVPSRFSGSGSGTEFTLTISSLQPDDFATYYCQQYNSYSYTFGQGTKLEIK
As for B1, the average fluorescence intensity in [1] turned out to be 8.9 MFI; in [2], 179 MFI; in assay [3], 1920 MFI; in assay [5], 26.7 MFI; in [6], 601 MFI; in [10], 453 MFI. Moreover, the average fluorescence intensity in [11] turned out to be 5.3 MFI; in assay [12] it was 466 MFI; in [13], 14.1 MFI; in [14] it was 4 MFI. The OD450 nm in assay [4] came to 0.11 OD450 nm; in [7] it was 2.79 OD450 nm; in [8], 0.07 OD450 nm; in [9], 2.77 OD450 nm.

B2: 118F3A2 (antibody, V domains shown)
VH: QVQLQQWGAGLLKPSETLSLTCGVYGGSFSTNYWSWIRQSPGKGLEWIGEINHSGNTEYNPSLKSRLTISIDTSKNQFSLKLTSVTAADTAVYYCARMGYHSPSFDFWGQGVLVTVSS
VL: KIVMTQSPATLSVSPGERATLPCRVSQGIGSNLAWYQQKPGQAPRLLIYGASTRATGVPARFSGSGSGSEFTLTISSLQSEDLALYYCQQYNNWPLTFGGGTKVEIK
In the case of B2, the average fluorescence intensity was 10.8 MFI in assay [1]; 114 MFI in assay [2]; 540 MFI in assay [3]; 34.4 MFI in [5]; 735 MFI in assay [6]; 346 MFI in [10]. The average fluorescence intensity is 4.9 MFI in assay [11], 408 MFI in assay [12], 11.8 MFI in assay [13] and 4.4 MFI in assay [14]. The OD450 nm in [4] was found to be 0.44 OD450 nm; in [7], 2.73 OD450 nm; in assay [8], 0.43 OD450 nm; in assay [9], 2.72 OD450 nm.

B3: 52F4G2 (antibody, V domains shown)
VH: QVQLQESGPGLVKPSETLSLTCAVSGYSISSGYYWGWIRQPPGKGLEWIGSIFHSGSSYYNPSLKSRVTISVDTSKNQFSLKLRSVTAADTAVYYCARESSGWNCFDYWGQGTLVTVSS
VL: DIQMTQSPSTLSASVGDRVTITCRASQTISTWLAWYQQKPGKAPKLLIYKASNLESGVPSRFSGSGSGTEFTLTISSLQPDDFATYYCQQYNSYSITFGQGTRLEIK
Regarding B3, the average fluorescence intensity in assay [1] amounted to 11.7 MFI; in assay [2], 130 MFI; in assay [3], 600 MFI; in [5], 38.3 MFI; in assay [6], 736 MFI; in assay [10], 410 MFI. The average fluorescence intensity is 4.5 MFI in [11], 469 MFI in assay [12], 13.7 MFI in [13] and 4.8 MFI in assay [14]. Also, the OD450 nm amounted to 0.34 OD450 nm in assay [4], 3.09 OD450 nm in assay [7], 0.26 OD450 nm in assay [8] and 3.1 OD450 nm in [9].

B4: 113F6C6 (antibody, V domains shown)
VH: QVQLVESGGGVVQPGRSLRLSCAASGLTFSSYGMHWVRQAPGKGLEWVAVIWYDGSNKYYADSVKGRFTISRDNSKNTLYLQMNSLRAEDTAVYYCAREEVLWFGELSYNYYYGMDVWGQGTTVTVSS
VL: DIQMTQSPSSLSASVGDRVTITCRASQGISNYLAWYQQKPGKVPKLLIYAASTLQSGVPSRFSGSGSGTDFTLTISSLQPEDVATYYCQKYNSVPLTFGGGTKVEIK
notes: also called 4-1BB fully human antibody 113F6C6; 113F6F6
As to B4, the average fluorescence intensity was determined as 4.8 MFI in assay [1]; 182 MFI in assay [2]; 477 MFI in [3]; 13.7 MFI in assay [5]; 426 MFI in [6]; 154 MFI in assay [10]. Besides, the average fluorescence intensity was found to be 5.5 MFI in assay [11], 357 MFI in assay [12], 15.1 MFI in assay [13] and 2.7 MFI in [14].

B5: 57B3D10 (antibody, V domains shown)
VH: QVQLQESGPGLVKPSETLSLTCTVSGGSISSYYWSWIRQPPGKGLEWIGYIYYSGSTNYNPSLKSRVTISVDTSKSQFSLKLTSVTAADTAVYYCAKDSDYYGSGSYSYWYFDLWGRGTLVTVSS
VL: EIVMTQSPATLSVSPGERATLSCRASQSVSSNLAWYQQKPGQAPRLLIYGASTRAPGIPARFSGSGSGTEFTLTISSLQSEDFAVYYCQQYNNWPLTFGGGTKVEIK
notes: also called 4-1BB fully human antibody 57B3D10
As for B5, the average fluorescence intensity was 12.5 MFI in [1]; 166 MFI in [2]; 555 MFI in assay [3]; 42.7 MFI in assay [5]; 581 MFI in assay [6]; 389 MFI in [10]. Also, the average fluorescence intensity in [11] amounted to 5.6 MFI; in assay [12] it was 549 MFI; in assay [13] it was 15 MFI; in [14], 4.9 MFI.

The values are drawn from US20200347144A1 (SHANGHAI HYAMAB BIOTECH, published 2020).
